Measurements from patent US20240009285A1 (REGENERATIVE RESEARCH FOUNDATION, published 2024).

Columns and labels:
[1] = biological target: GFP-Tau-(0N4R) (human, UniProt P10636-6 1-383); test: cell-based or functional assay
[2] = biological target: human α-synuclein protein (human, UniProt P37840 1-140); test: surface plasmon resonance (SPR); no numbers given

Chain of GFP-Tau-(0N4R) (P10636 other isoform, or with tags, fused parts or gaps): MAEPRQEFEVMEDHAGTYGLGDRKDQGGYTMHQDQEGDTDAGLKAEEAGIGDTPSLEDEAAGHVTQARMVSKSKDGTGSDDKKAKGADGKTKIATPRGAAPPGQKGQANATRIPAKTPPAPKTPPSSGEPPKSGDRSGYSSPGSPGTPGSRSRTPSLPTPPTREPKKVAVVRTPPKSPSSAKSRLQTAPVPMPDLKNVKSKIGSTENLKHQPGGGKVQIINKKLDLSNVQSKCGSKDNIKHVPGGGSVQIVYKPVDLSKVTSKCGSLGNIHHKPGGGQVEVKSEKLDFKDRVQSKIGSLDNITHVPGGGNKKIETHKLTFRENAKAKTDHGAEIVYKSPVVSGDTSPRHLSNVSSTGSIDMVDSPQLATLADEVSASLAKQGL

Binder | reduction of total tau vs EV-CON (western blot) [1] | binding result [2]
scFv-V-hPEST-D433A (scFv, V domains shown) VH: QVQLVESGGGLVKPGGSLRLSCAASGFTFSSYAMSWVRQAPGKGLEWVAAISGSGDNTYYADSVKGRFTISRDNSENTVHLQMAGLRAEDTALYFCAKDGPEVGNPGGYFDFWGRGTLVTVSS | ~40% | 
scFv-N-hPEST-D433A (scFv, V domains shown) VH: QVQLVESGGGLVKPGGSLRLSCAASGFTFSSYAMSWVRQAPGKGLEWVAAISGSGDNTYYADSVKGRFTISRDNSENTVHLQMAGLRAEDTALYFCAKDGPAVGNPGGYFDFWGRGTLVTVSS | ~40% | 
scFv-N-hPEST-S445A (scFv, V domains shown) VH: QVQLVESGGGLVKPGGSLRLSCAASGFTFSSYAMSWVRQAPGKGLEWVAAISGSGDNTYYADSVKGRFTISRDNSENTVHLQMAGLRAEDTALYFCAKDGPAVGNPGGYFDFWGRGTLVTVSS | ~40% | 
VHH-4C-N77D (VHH, Unfused nanobody as named in the SPR statement; also called VHH-N77D) VHH: VQLVESGGGGLVQPGGSLRLSCVTPGGIFSDYAMGWYRQAPGKQRELVADITVSDTTRYSDPVKGRFTISRDNAKDMVYLQMNSLKPEDAAIYTCNAQKWEDRYGSSERYDYWGQGTQVTVSS |  | binds
